Data as given in US20220306695A1, “COMPSTATIN ANALOGUES AND THEIR MEDICAL USES” (priority 2019, published 2022).
Positions of bridges follow the written chain, without caps; N, C: chain ends. Non-standard residues stand in square brackets, D forms with d. β3hI = CC[C@H](C)[C@H](N)CC(=O)O; Nle = CCCC[C@H](N)C(=O)O; Nva = CCC[C@H](N)C(=O)O; Sar = CNCC(=O)O

Assays:
[1] = molecular target: T1, Human C3 (human, UniProt P01024 23-1663); experiment: SPR, C3 immobilised
T1 construct: In SPR the bought human C3 was immobilised on CM5 chips by amine coupling; In the haemolysis assay the C3 is that of diluted human serum; also called complement C3
How it was run: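 Peptide series (5-8 concentrations, 60-120 s, up to 10 min dissociation, Tris pH 7.4 running buffer) flowed over ~3000 RU amine-coupled human C3; MgCl₂ regeneration; at least two independent runs.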

[2] = molecular target: T1, Human C3; experiment: cell-based or functional assay
[3] = molecular target: T1, Human C3; experiment: cell-based or functional assay; remark: listed apart in the source
[4] = molecular target: T1, Human C3; experiment: cell-based or functional assay; remark: listed apart in the source

T1 sequence (P01024 23-1663 limits assumed): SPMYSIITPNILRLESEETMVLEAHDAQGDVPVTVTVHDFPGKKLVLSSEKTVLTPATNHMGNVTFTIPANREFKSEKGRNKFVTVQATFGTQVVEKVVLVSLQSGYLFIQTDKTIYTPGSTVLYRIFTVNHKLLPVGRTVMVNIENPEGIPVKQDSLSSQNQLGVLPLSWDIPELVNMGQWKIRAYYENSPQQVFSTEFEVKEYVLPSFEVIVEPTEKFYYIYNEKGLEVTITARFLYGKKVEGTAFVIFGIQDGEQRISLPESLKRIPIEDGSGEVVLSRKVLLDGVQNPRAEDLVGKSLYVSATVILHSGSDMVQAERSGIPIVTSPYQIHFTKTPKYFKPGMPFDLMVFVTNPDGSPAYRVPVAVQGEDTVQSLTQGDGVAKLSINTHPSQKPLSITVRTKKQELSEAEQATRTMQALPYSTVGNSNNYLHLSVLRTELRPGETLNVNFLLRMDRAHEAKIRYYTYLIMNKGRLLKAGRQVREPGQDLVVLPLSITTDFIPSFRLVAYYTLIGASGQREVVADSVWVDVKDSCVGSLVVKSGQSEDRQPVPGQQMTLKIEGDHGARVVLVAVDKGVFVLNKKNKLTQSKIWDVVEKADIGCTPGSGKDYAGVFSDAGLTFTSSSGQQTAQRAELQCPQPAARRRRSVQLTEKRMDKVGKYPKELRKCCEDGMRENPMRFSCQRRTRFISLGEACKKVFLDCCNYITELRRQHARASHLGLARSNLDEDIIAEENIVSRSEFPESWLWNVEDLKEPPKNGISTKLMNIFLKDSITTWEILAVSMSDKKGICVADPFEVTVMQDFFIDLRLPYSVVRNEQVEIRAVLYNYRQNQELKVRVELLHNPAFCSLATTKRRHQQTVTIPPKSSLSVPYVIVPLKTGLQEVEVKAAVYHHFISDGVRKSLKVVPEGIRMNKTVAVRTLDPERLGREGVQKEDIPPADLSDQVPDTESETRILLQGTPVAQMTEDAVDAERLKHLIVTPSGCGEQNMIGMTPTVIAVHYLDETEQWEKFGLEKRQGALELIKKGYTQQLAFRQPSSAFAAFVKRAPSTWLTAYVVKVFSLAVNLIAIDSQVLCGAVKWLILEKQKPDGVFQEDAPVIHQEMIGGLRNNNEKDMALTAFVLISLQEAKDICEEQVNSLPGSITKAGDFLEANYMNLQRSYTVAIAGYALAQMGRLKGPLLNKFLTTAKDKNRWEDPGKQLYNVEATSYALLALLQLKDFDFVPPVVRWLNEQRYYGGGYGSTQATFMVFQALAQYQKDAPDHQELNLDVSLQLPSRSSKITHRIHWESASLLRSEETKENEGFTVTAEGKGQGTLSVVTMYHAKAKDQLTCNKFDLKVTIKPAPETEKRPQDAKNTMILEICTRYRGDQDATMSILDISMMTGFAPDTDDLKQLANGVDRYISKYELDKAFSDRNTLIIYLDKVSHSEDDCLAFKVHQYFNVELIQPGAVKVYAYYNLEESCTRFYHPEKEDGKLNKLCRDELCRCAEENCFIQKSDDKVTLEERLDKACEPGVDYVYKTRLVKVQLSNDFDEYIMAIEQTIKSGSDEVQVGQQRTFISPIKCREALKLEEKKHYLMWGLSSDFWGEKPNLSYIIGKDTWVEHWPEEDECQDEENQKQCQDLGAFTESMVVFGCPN

Kd [1] | Binder | IC50[nM], inhibition of hemolysis [2] | CP hemolysis IC50 [3] | IC50, CP hemolysis [4]
44 nM | Ac-EGSAICIWQDWGEHRC[Sar]E-NH2 (disulfide 6-16; SMILES CC[C@H](C)[C@H](NC(=O)[C@H](C)NC(=O)[C@H](CO)NC(=O)CNC(=O)[C@H](CCC(=O)O)NC(C)=O)C(=O)N[C@H]1CSSC[C@@H](C(=O)N(C)CC(=O)N[C@@H](CCC(=O)O)C(N)=O)NC(=O)[C@H](CCCNC(=N)N)NC(=O)[C@H](Cc2c[nH]cn2)NC(=O)[C@H](CCC(=O)O)NC(=O)CNC(=O)[C@H](Cc2c[nH]c3ccccc23)NC(=O)[C@H](CC(=O)O)NC(=O)[C@H](CCC(N)=O)NC(=O)[C@H](Cc2c[nH]c3ccccc23)NC(=O)[C@H]([C@@H](C)CC)NC1=O) [Compound 28] | < 100 nM | 88 nM | 
37 nM | Ac-ICIWQDWGEHSCT-NH2 (disulfide 2-12; SMILES CC[C@H](C)[C@H](NC(C)=O)C(=O)N[C@H]1CSSC[C@@H](C(=O)N[C@H](C(N)=O)[C@@H](C)O)NC(=O)[C@H](CO)NC(=O)[C@H](Cc2c[nH]cn2)NC(=O)[C@H](CCC(=O)O)NC(=O)CNC(=O)[C@H](Cc2c[nH]c3ccccc23)NC(=O)[C@H](CC(=O)O)NC(=O)[C@H](CCC(N)=O)NC(=O)[C@H](Cc2c[nH]c3ccccc23)NC(=O)[C@H]([C@@H](C)CC)NC1=O) [Compound 20] | < 100 nM | 59 nM | 
 | Ac-ICIWQDWGEHRCS-NH2 (disulfide 2-12; SMILES CC[C@H](C)[C@H](NC(C)=O)C(=O)N[C@H]1CSSC[C@@H](C(=O)N[C@@H](CO)C(N)=O)NC(=O)[C@H](CCCNC(=N)N)NC(=O)[C@H](Cc2c[nH]cn2)NC(=O)[C@H](CCC(=O)O)NC(=O)CNC(=O)[C@H](Cc2c[nH]c3ccccc23)NC(=O)[C@H](CC(=O)O)NC(=O)[C@H](CCC(N)=O)NC(=O)[C@H](Cc2c[nH]c3ccccc23)NC(=O)[C@H]([C@@H](C)CC)NC1=O) [Compound 21] | < 100 nM | 77 nM | 
 | Ac-ICIWQDWGAHSCT-NH2 (disulfide 2-12; SMILES CC[C@H](C)[C@H](NC(C)=O)C(=O)N[C@H]1CSSC[C@@H](C(=O)N[C@H](C(N)=O)[C@@H](C)O)NC(=O)[C@H](CO)NC(=O)[C@H](Cc2c[nH]cn2)NC(=O)[C@H](C)NC(=O)CNC(=O)[C@H](Cc2c[nH]c3ccccc23)NC(=O)[C@H](CC(=O)O)NC(=O)[C@H](CCC(N)=O)NC(=O)[C@H](Cc2c[nH]c3ccccc23)NC(=O)[C@H]([C@@H](C)CC)NC1=O) [Compound 19] | < 250 nM | 140 nM | 
 | Ac-ESSAICVWQDWGEHRCT-NH2 (disulfide 6-16; SMILES CC[C@H](C)[C@H](NC(=O)[C@H](C)NC(=O)[C@H](CO)NC(=O)[C@H](CO)NC(=O)[C@H](CCC(=O)O)NC(C)=O)C(=O)N[C@H]1CSSC[C@@H](C(=O)N[C@H](C(N)=O)[C@@H](C)O)NC(=O)[C@H](CCCNC(=N)N)NC(=O)[C@H](Cc2c[nH]cn2)NC(=O)[C@H](CCC(=O)O)NC(=O)CNC(=O)[C@H](Cc2c[nH]c3ccccc23)NC(=O)[C@H](CC(=O)O)NC(=O)[C@H](CCC(N)=O)NC(=O)[C@H](Cc2c[nH]c3ccccc23)NC(=O)[C@H](C(C)C)NC1=O) [Compound C] |  | 300 nM | 
 | Ac-ICIWQDWGEHRCTEGE-NH2 (disulfide 2-12; SMILES CC[C@H](C)[C@H](NC(C)=O)C(=O)N[C@H]1CSSC[C@@H](C(=O)N[C@H](C(=O)N[C@@H](CCC(=O)O)C(=O)NCC(=O)N[C@@H](CCC(=O)O)C(N)=O)[C@@H](C)O)NC(=O)[C@H](CCCNC(=N)N)NC(=O)[C@H](Cc2c[nH]cn2)NC(=O)[C@H](CCC(=O)O)NC(=O)CNC(=O)[C@H](Cc2c[nH]c3ccccc23)NC(=O)[C@H](CC(=O)O)NC(=O)[C@H](CCC(N)=O)NC(=O)[C@H](Cc2c[nH]c3ccccc23)NC(=O)[C@H]([C@@H](C)CC)NC1=O, also called Comp No 24) [Compound 24] | < 100 nM | 90 nM | 
 | Ac-ESSAICIWQDWGEHRCT-NH2 (disulfide 6-16; SMILES CC[C@H](C)[C@H](NC(=O)[C@H](C)NC(=O)[C@H](CO)NC(=O)[C@H](CO)NC(=O)[C@H](CCC(=O)O)NC(C)=O)C(=O)N[C@H]1CSSC[C@@H](C(=O)N[C@H](C(N)=O)[C@@H](C)O)NC(=O)[C@H](CCCNC(=N)N)NC(=O)[C@H](Cc2c[nH]cn2)NC(=O)[C@H](CCC(=O)O)NC(=O)CNC(=O)[C@H](Cc2c[nH]c3ccccc23)NC(=O)[C@H](CC(=O)O)NC(=O)[C@H](CCC(N)=O)NC(=O)[C@H](Cc2c[nH]c3ccccc23)NC(=O)[C@H]([C@@H](C)CC)NC1=O) [Compound 3] | < 100 nM | 69 nM | 
 | Ac-ICIWQDWGSHRCT-NH2 (disulfide 2-12; SMILES CC[C@H](C)[C@H](NC(C)=O)C(=O)N[C@H]1CSSC[C@@H](C(=O)N[C@H](C(N)=O)[C@@H](C)O)NC(=O)[C@H](CCCNC(=N)N)NC(=O)[C@H](Cc2c[nH]cn2)NC(=O)[C@H](CO)NC(=O)CNC(=O)[C@H](Cc2c[nH]c3ccccc23)NC(=O)[C@H](CC(=O)O)NC(=O)[C@H](CCC(N)=O)NC(=O)[C@H](Cc2c[nH]c3ccccc23)NC(=O)[C@H]([C@@H](C)CC)NC1=O) [Compound 6] | < 250 nM | 140 nM | 
 | Ac-IC[β3hI]WQDWGEHRCT-NH2 (disulfide 2-12) [Ac-IC(1)XWQDWGEHRC(1)T-NH2 with Beta-Homo-Isoleucine at position 3] |  |  | > 10000 nM
 | Ac-IC[Nva]WQDWGEHRCT-NH2 (disulfide 2-12; SMILES CCC[C@@H]1NC(=O)[C@@H](NC(=O)[C@@H](NC(C)=O)[C@@H](C)CC)CSSC[C@@H](C(=O)N[C@H](C(N)=O)[C@@H](C)O)NC(=O)[C@H](CCCNC(=N)N)NC(=O)[C@H](Cc2c[nH]cn2)NC(=O)[C@H](CCC(=O)O)NC(=O)CNC(=O)[C@H](Cc2c[nH]c3ccccc23)NC(=O)[C@H](CC(=O)O)NC(=O)[C@H](CCC(N)=O)NC(=O)[C@H](Cc2c[nH]c3ccccc23)NC1=O) [Ac-IC(1)XWQDWGEHRC(1)T-NH2 with Norvaline at position 3] |  |  | > 1000 nM
 | Ac-ICVWQDWGEHSCT-NH2 (disulfide 2-12; SMILES CC[C@H](C)[C@H](NC(C)=O)C(=O)N[C@H]1CSSC[C@@H](C(=O)N[C@H](C(N)=O)[C@@H](C)O)NC(=O)[C@H](CO)NC(=O)[C@H](Cc2c[nH]cn2)NC(=O)[C@H](CCC(=O)O)NC(=O)CNC(=O)[C@H](Cc2c[nH]c3ccccc23)NC(=O)[C@H](CC(=O)O)NC(=O)[C@H](CCC(N)=O)NC(=O)[C@H](Cc2c[nH]c3ccccc23)NC(=O)[C@H](C(C)C)NC1=O) [Compound F] |  | 540 nM | 
 | Ac-ICVWQDWGAHSCT-NH2 (disulfide 2-12; SMILES CC[C@H](C)[C@H](NC(C)=O)C(=O)N[C@H]1CSSC[C@@H](C(=O)N[C@H](C(N)=O)[C@@H](C)O)NC(=O)[C@H](CO)NC(=O)[C@H](Cc2c[nH]cn2)NC(=O)[C@H](C)NC(=O)CNC(=O)[C@H](Cc2c[nH]c3ccccc23)NC(=O)[C@H](CC(=O)O)NC(=O)[C@H](CCC(N)=O)NC(=O)[C@H](Cc2c[nH]c3ccccc23)NC(=O)[C@H](C(C)C)NC1=O) [Compound E] |  | > 1000 nM | 
 | Ac-ICIWQDWGEHRCTGAES-NH2 (disulfide 2-12; SMILES CC[C@H](C)[C@H](NC(C)=O)C(=O)N[C@H]1CSSC[C@@H](C(=O)N[C@H](C(=O)NCC(=O)N[C@@H](C)C(=O)N[C@@H](CCC(=O)O)C(=O)N[C@@H](CO)C(N)=O)[C@@H](C)O)NC(=O)[C@H](CCCNC(=N)N)NC(=O)[C@H](Cc2c[nH]cn2)NC(=O)[C@H](CCC(=O)O)NC(=O)CNC(=O)[C@H](Cc2c[nH]c3ccccc23)NC(=O)[C@H](CC(=O)O)NC(=O)[C@H](CCC(N)=O)NC(=O)[C@H](Cc2c[nH]c3ccccc23)NC(=O)[C@H]([C@@H](C)CC)NC1=O) [Compound 15] | < 100 nM | 47 nM | 
 | Ac-ICVWQDWGEHRCTEGE-NH2 (disulfide 2-12; SMILES CC[C@H](C)[C@H](NC(C)=O)C(=O)N[C@H]1CSSC[C@@H](C(=O)N[C@H](C(=O)N[C@@H](CCC(=O)O)C(=O)NCC(=O)N[C@@H](CCC(=O)O)C(N)=O)[C@@H](C)O)NC(=O)[C@H](CCCNC(=N)N)NC(=O)[C@H](Cc2c[nH]cn2)NC(=O)[C@H](CCC(=O)O)NC(=O)CNC(=O)[C@H](Cc2c[nH]c3ccccc23)NC(=O)[C@H](CC(=O)O)NC(=O)[C@H](CCC(N)=O)NC(=O)[C@H](Cc2c[nH]c3ccccc23)NC(=O)[C@H](C(C)C)NC1=O) [Compound J] |  | 240 nM | 
 | Ac-IC[Nle]WQDWGEHRCT-NH2 (disulfide 2-12; SMILES CCCC[C@@H]1NC(=O)[C@@H](NC(=O)[C@@H](NC(C)=O)[C@@H](C)CC)CSSC[C@@H](C(=O)N[C@H](C(N)=O)[C@@H](C)O)NC(=O)[C@H](CCCNC(=N)N)NC(=O)[C@H](Cc2c[nH]cn2)NC(=O)[C@H](CCC(=O)O)NC(=O)CNC(=O)[C@H](Cc2c[nH]c3ccccc23)NC(=O)[C@H](CC(=O)O)NC(=O)[C@H](CCC(N)=O)NC(=O)[C@H](Cc2c[nH]c3ccccc23)NC1=O) [Ac-IC(1)XWQDWGEHRC(1)T-NH2 with Norleucine at position 3] |  |  | 480 nM
